Test results: US20230192897A1 (NUMAB THERAPEUTICS, published 2023)
Each block holds one binder with its values, some of them ahead of it.

Legend:
Fc tagged human PDL1 = molecular target: T1, Fc tagged human PDL1 (human, UniProt Q9NZQ7 19-239); test: SPR
T1 construct: Bought (Sino Biological, cat. 10084-H02H); captured on the SPR chip; also called PDL1-Fc chimeric protein

Fc tagged human CD137 = molecular target: T2, Fc tagged human CD137 (human, UniProt Q07011 24-186); test: SPR
T2 construct: also called CD137-Fc chimeric protein
How it was run: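 Kinetics were fitted with a one-to-one Langmuir model to give apparent ka, kd and KD. Binders at 0.12-90 nM (three-fold series) flowed 3 min, with 10 min dissociation and 3 M MgCl₂ regeneration, on a Biacore T200.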

[1] = molecular target: T3, CD137 on Jurkat NFkB reporter cells (human, UniProt Q07011 24-255); test: cell-based or functional assay
[2] = molecular target: T3, CD137 on Jurkat NFkB reporter cells; test: cell-based or functional assay; remark: listed apart in the source
[3] = molecular target: T3, CD137 on Jurkat NFkB reporter cells; test: cell-based or functional assay; remark: listed apart in the source
human PDL1 on cells = human PDL1 on cells (human, UniProt Q9NZQ7 19-290); test: cell-based or functional assay
[4] = molecular target: T3, CD137 on Jurkat NFkB reporter cells; test: cell-based or functional assay; remark: listed apart in the source
[5] = molecular target: human PDL1 extracellular domain (human, UniProt Q9NZQ7 19-238); test: SPR, IgG format captured
Method: (§1) Affinity to PDL1 of the different species was determined by SPR measurements using a Biacore T200 device (GE Healthcare). An antibody specific for the Fc region of human IgGs was immobilized on a sensor chip (CM5 sensor chip, GE Healthcare) by amine-coupling. For all formats, with the exception of the Fc containing Morrison formats, PDL1-Fc chimeric protein from different species were captured by the immobilized antibody.
(§2) The Fc containing formats were directly captured by the antibody specific for the Fc region of human IgGs. Two-fold serial dilutions of PDL1 extracellular domain or CD137 extracellular domain ranging from 90 to 0.35 nM were tested for binding to the IgG captured on the biosensor chip. After each injection cycle, surfaces were regenerated with one injection of a 3 M MgCl2 solution.

[6] = molecular target: T4, human CD137 extracellular domain (human, UniProt Q07011 24-186); test: SPR, IgG format captured
T4 construct: also called CD137 (PeproTech, cat. 310-15)
Method: as §1, §2

biotinylated human PDL1 [7] = molecular target: T5, biotinylated human PDL1 (human, UniProt Q9NZQ7 19-238, limits assumed, biotinylated); test: competition ELISA B7.1/PDL1
T5 construct: also called biotinylated PDL1
How it was run: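 IC₅₀ was derived by four-parameter logistic fitting of reference-subtracted A450/690 readings. The signal came from streptavidin-polyHRP40 (10 ng/ml) with a 6-minute TMB reaction detecting biotinylated PDL1 bound to the plate. Pre-mixed samples sat 1 h at RT before a 1.5 h plate incubation.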

biotinylated human PDL1 [8] = molecular target: T5, biotinylated human PDL1; test: competition ELISA PD-1/PDL1

binding result (Fc tagged human PDL1): binds
koff (Fc tagged human CD137): 0.0021 s⁻¹
EC50, NFkB reporter, CHO-PDL1, 6 h, +HSA [1]: 0.0709 mg/L
EC50, NFkB reporter, CHO-PDL1, 24 h, +HSA [2]: 0.121 mg/L
IC50 (ng/ml), NFkB reporter, CHO-PD-L1, 24 h, +HSA [3]: 121 ng/mL
max. activation (%), NFkB reporter, CHO-PD-L1, 24 h, +HSA [3]: 36.2%
rel. IC50 (urelumab/test), NFkB reporter, CHO-PD-L1, 24 h, +HSA [3]: 0.64 fold
B1: PRO1058 (other)
chain: DIQMTQSPSSLSASVGDRVTITCQASQSINDYLAWYQQKPGKAPKLLIYKASTLASGVPSRFSGSGSGTDFTLTISSLQPEDFATYYCQQGYIITDIDNVFGTGTKVTVLGGGGGSQVQLQESGPGLVKPSETLSLTCKVSGFSFNNDYDMCWIRQPPGKGLEWIGCIDTGDGSTYYASWAKGRVTISVDSSKNQFSLKLSSVTAADTAVYYCAREAASSSGYGMGYFDLWGQGTLVTVSSGGGGSGGGGSGGGGSGGGGSIQMTQSPSSLSASVGDRVTITCQSSQSVYDNNWLAWYQQKPGKAPKLLIYRASNLASGVPSRFSGSGSGTDFTLTISSLQPEDFATYYCQGTYLSSNWYWAFGTGTKVTVLGGGGGSQVQLQESGPGLVKPSETLSLTCKVSGFSFSSGYDMCWIRQPPGKGLEWIGCVVAGSVDITYYASWAKGRVTISVDSSKNQFSLKLSSVTAADTAVYYCARKDAYSDAFNLWGQGTLVTVSSGGGGSGGGGSVVMTQSPSSLSASVGDRVTITCQASQIISSRSAWYQQKPGQPPKLLIYQASKLASGVPSRFSGSGSGTDFTLTISSLQPEDFATYYCQCTYIDSNFGAFGGGTKLTVLGGGGGSGGGGSGGGGSGGGGSEVQLVESGGGLVQPGGSLRLSCAASGFSFSSSYWICWVRQAPGKGLEWVGCVFTGDGTTYYASWAKGRFTISRDNSKNTVYLQMNSLRAEDTATYFCARPVSVYYYGMDLWGQGTLVTVSS
notes: trispecific scDb-scFv; also called 38-27-C05 sc01 scDb-i/33-03-G02 sc01 scDb-o/23-13-A01-sc03, sk17sh4

IC50 (ng/ml), NF-AT potency assay (human PDL1 on cells): 96.5 ng/mL
rel. IC50 (avelumab/test) (human PDL1 on cells): 0.68 fold
EC50, NFkB reporter, CHO-PDL1, 6 h [4]: 0.0522 mg/L
EC50, NFkB reporter, CHO-PDL1, 24 h [4]: 0.0869 mg/L
IC50 (ng/ml), NFkB reporter, CHO-PD-L1, 24 h [4]: 86.9 ng/mL
max. activation (%), NFkB reporter, CHO-PD-L1, 24 h [4]: 134%
rel. IC50 (urelumab/test), NFkB reporter, CHO-PD-L1, 24 h [4]: 0.54 fold
koff [5]: 5e-05 s⁻¹
Kd [6]: 1.3 nM
koff [6]: 0.00037 s⁻¹
kon [6]: 280000 M⁻¹ s⁻¹
IC50 (biotinylated human PDL1 [7]): 0.0195 mg/L
rel. IC50 (IC50 avelumab/IC50 test) (biotinylated human PDL1 [7]): 0.51 fold
IC50 (biotinylated human PDL1 [8]): 0.0113 mg/L
rel. IC50 (IC50 avelumab/IC50 test) (biotinylated human PDL1 [8]): 0.32 fold
B2: PRO1062 (bispecific antibody, human IgG1, kappa, L234A L235A)
light: DIQMTQSPSSLSASVGDRVTITCQASQSINDYLAWYQQKPGKAPKLLIYKASTLASGVPSRFSGSGSGTDFTLTISSLQPEDFATYYCQQGYIITDIDNVFGTGTKVTVLGTVAAPSVFIFPPSDEQLKSGTASVVCLLNNFYPREAKVQWKVDNALQSGNSQESVTEQDSKDSTYSLSSTLTLSKADYEKHKVYACEVTHQGLSSPVTKSFNRGEC
heavy: QVQLQESGPGLVKPSETLSLTCKVSGFSFSSGYDMCWIRQPPGKGLEWIGCVVAGSVDITYYASWAKGRVTISVDSSKNQFSLKLSSVTAADTAVYYCARKDAYSDAFNLWGQGTLVTVSSASTKGPSVFPLAPSSKSTSGGTAALGCLVKDYFPEPVTVSWNSGALTSGVHTFPAVLQSSGLYSLSSVVTVPSSSLGTQTYICNVNHKPSNTKVDKRVEPKSCDKTHTCPPCPAPEAAGGPSVFLFPPKPKDTLMISRTPEVTCVVVDVSHEDPEVKFNWYVDGVEVHNAKTKPREEQYNSTYRVVSVLTVLHQDWLNGKEYKCKVSNKALGAPIEKTISKAKGQPREPQVYTLPPSREEMTKNQVSLTCLVKGFYPSDIAVEWESNGQPENNYKTTPPVLDSDGSFFLYSKLTVDKSRWQQGNVFSCSVMHEALHNHYTQKSLSLSPGKGGGGSGGGGSIQMTQSPSSLSASVGDRVTITCQASQSINNVLAWYQQKPGKAPKLLIYRASTLASGVPSRFSGSGSGTDFTLTISSLQPEDFATYYCQSSYGNYGDFGTGTKVTVLGGGGGSGGGGSGGGGSGGGGSQVQLQESGPGLVKPSETLSLTCKVSGFSFSNSYWICWIRQPPGKGLEWIGCTFVGSSDSTYYANWAKGRVTISVDSSKNQFSLKLSSVTAADTAVYYCARHPSDAVYGYANNLWGQGTLVTVSS
notes: also called 33-03-G02 sc01 IgG1 HC with 38-27-C05 sc01 scFv; Morrison-H
